Common to all, as to conditions: other: capillary electrophoresis
Data set [1] concerns the target WT Cu, Zn superoxide dismutase-1 (SOD1), recombinant human (UniProt P00441). Put plainly: capillary electrophoresis; both homodimers apo (metal-free, disulfide intact), mixed at 15 μM dimer each ([SOD1]total = 30 μM), followed over time; 10 mM potassium phosphate pH 7.4, CE at 22 °C, storage at 15 °C; KHet assumed from the fit extrapolated to t = 5000 min.
Data set [2] has the same target. Put plainly: capillary electrophoresis; binder (first named) as apo-SOD1, target (second named, WT or TD) as 4Zn-SOD1; 15 μM dimer each ([SOD1]total = 30 μM), followed over time; 10 mM potassium phosphate pH 7.4, CE at 22 °C, storage at 15 °C; KHet assumed from the fit extrapolated to t = 5000 min.
The target is the same in data set [3]. Put plainly: capillary electrophoresis; binder (first named) as 4Zn-SOD1, target (second named, WT or TD) as apo-SOD1; 15 μM dimer each ([SOD1]total = 30 μM), followed over time; 10 mM potassium phosphate pH 7.4, CE at 22 °C, storage at 15 °C; KHet assumed from the fit extrapolated to t = 5000 min.
The target is the same in data set [4]. Put plainly: capillary electrophoresis; both homodimers as 4Zn-SOD1; 15 μM dimer each ([SOD1]total = 30 μM), followed over time; 10 mM potassium phosphate pH 7.4, CE at 22 °C, storage at 15 °C; KHet assumed from the fit extrapolated to t = 5000 min.

Results on one substance are retold here after article PMC9667317.

Chain of triply deamidated SOD1 (modeled with N26D/N131D/N139D substitutions), recombinant human (chain, as listed by the source N26D N131D N139D): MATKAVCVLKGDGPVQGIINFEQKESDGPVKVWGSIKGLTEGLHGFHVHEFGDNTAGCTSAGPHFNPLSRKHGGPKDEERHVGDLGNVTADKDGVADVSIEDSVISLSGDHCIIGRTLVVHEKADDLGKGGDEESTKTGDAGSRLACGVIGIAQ
Chain of WT Cu, Zn superoxide dismutase-1 (SOD1), recombinant human (P00441 whole entry): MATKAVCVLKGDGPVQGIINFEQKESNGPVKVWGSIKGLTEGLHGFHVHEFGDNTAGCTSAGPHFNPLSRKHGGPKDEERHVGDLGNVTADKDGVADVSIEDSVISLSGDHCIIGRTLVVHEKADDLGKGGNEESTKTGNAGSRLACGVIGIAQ

Regarding “triply deamidated SOD1 (modeled with N26D/N131D/N139D substitutions), recombinant human”, the t30% (time to reach 30% heterodimer) was 85.8 min in data set [1], 188 min in data set [2], 297 min in data set [3] and 339 min in data set [4].
